Test [1] deals with T1, CD3-Fc.
T1 construct: Immobilised on a CM5 chip at 1000 RU; also called CD3 target
Briefly: SPR, CD3-Fc immobilised on CM5 chip, 25 C. On the procedure:
CD3-Fc was immobilized on a CM5 sensor chip at 1000 response units (RU) using ECD/NHS coupling methods. […] All samples were prepared at concentrations of 30 nM, 10 nM, 3 nM or 1 nM in HBS-EP+ runner buffer at 25° C.
Background: Surface plasmon resonance follows binding to a sensor surface in real time, without labels.

Test [2] addresses T2, CD3 on cells (PBMC, primary patient samples).
T2 construct: whole, on cells
The experiment in a line: flow cytometry, PBMC treated 1 h with 10 ug/mL of the binder, dot plot CD38-PE against CD3-V450; the C-IgG panel prints 25%; the filing reads the figure as binding to CD3 and CD38. On the procedure:
(§1) The CD3-CD38 compounds were then incubated with PBMCs to assess binding to CD3 and CD38 antigens presented on effector cells.
For orientation: In flow cytometry, cells or beads pass a laser one at a time.

Test [3] concerns the target T3, CD38-Fc (UniProt P28907 43-300).
T3 construct: Immobilised on a CM5 chip at 200 RU; also called CD38 antigen target; not shown: Fc part
The experiment in a line: SPR, CD38-Fc immobilised on CM5 chip, 25 C. How it is done: (§2) CD38-Fc was immobilized on a CM5 sensor chip at 200 response units (RU) using ECD/NHS coupling. […] These bispecific compounds include a protease cleavage site within one of the linker regions. […] All samples were prepared at concentrations of 30 nM, 10 nM, 3 nM or 1 nM in HBS-EP+ runner buffer at 25° C.

For test [4], the target named is T3, CD38-Fc. Briefly: SPR, CD38-Fc immobilised on CM5 chip, 25 C; ** = kd outside of detectable limits. How it is done: as §2
For test [5], the target named is T4, CD38 on cells (Nomo-1, SKM-1, MM1S, THP-1, HL60, PBMC, primary patient samples) (UniProt P28907 1-300).
T4 construct: whole, on cells
Briefly: flow cytometry, PBMC treated 1 h with 10 ug/mL of the binder, dot plot CD38-PE against CD3-V450; the C-IgG panel prints 48%; CD3+CD38+ quadrant of this panel: 0%; the filing reads the figure as binding to CD3 and CD38. On the procedure:
as §1

Data on six molecules can be found in patent US20260008864A1 (CITY OF HOPE, published 2026).

Some results are limits rather than exact numbers.

B1: 3-38BN002 (5F1O) (bispecific antibody)
chain: EVQLVESGGGLVQPGRSLRLSCAASGFTFDDYTMHWVRQAPGKGLEWVSDISWNSGSIGYADSVKGRFTVSRDNAKNSLYLQMNSLRGEDTAIYYCAKDMSGYGHYGKYGMDVWGQGTTVTVSSASTKGPSVFPLAPSSKSTSGGTAALGCLVKDYFPEPVTVSWNSGALTSGVHTFPAVLQSSGLYSLSSVVTVPSSSLGTQTYICNVNHKPSNTKVDKKVEPKSCAASGGAGSDVQLQESGGGLVQAGHSLRLSCVGSGSRFDNYAMGWFRQAPGKEREFVAAISWSSGTTRYLDTVKGRFTISRDNAKSTVYLQMNSLKPEDTAVYYCAARYQPRYYDSGDMDGYEYDNWGQGTQVTVSSGAVPLSLYGAGGDIQMTQSPILLSASVGDRVTITCRASQSIRSYLNWYQQRTNGSPRLLIYAASSLQSGVPSRFSGSGSGTDFTLTINSLQPDDEADYYCQQTYSNPPITFGAGTRLEIKRTVAAPSVFIFPPSDEQLKSGTASVVCLLNNFYPREAKVQWKVDNALQSGNSQESVTEQDSKDSTYSLSSTLTLSKADYEKHKVYACEVTHQGLSSPVTKSFNRGEC
notes: Single chain with cleavable linker L2 (MMP-9 site); also called 38N002; CD3HC-L1-CD38nanobody (5F1O)-L2-CD3LC
As a reminder, the Kd is the equilibrium constant for the complex coming apart. For orientation: koff means a measure of how fast the partners let go of each other. A lower koff goes with slow dissociation. What is called kon is the rate constant with which the complex forms. Take B1: in test [1], the affinity, expressed as Kd, was 530 nM; the koff amounted to 0.0227 s⁻¹; the kon was 42900 M⁻¹ s⁻¹. Also, the “CD3 (% of PBMC in the CD3-V450 positive, CD38-PE negative quadrant)” value in test [2] amounted to 12%. Besides, in test [3], binding was put at a Kd of 0.772 nM, the koff is 0.000127 s⁻¹ and the kon was found to be 165000 M⁻¹ s⁻¹.

B2: 3-38BN005 (5F1O) (bispecific antibody)
chain: EVQLVESGGGLVQPGRSLRLSCAASGFTFDDYTMHWVRQAPGKGLEWVSDISWNSGSIGYADSVKGRFTVSRDNAKNSLYLQMNSLRGEDTAIYYCAKDMSGYGHYGKYGMDVWGQGTTVTVSSASTKGPSVFPLAPSSKSTSGGTAALGCLVKDYFPEPVTVSWNSGALTSGVHTFPAVLQSSGLYSLSSVVTVPSSSLGTQTYICNVNHKPSNTKVDKKVEPKSCAASGGAGSDVQLQESGGGLVQAGHSLRLSCVGSGSRFDNYAMGWFRQAPGKEREFVAAISWSSGTTRYLDTVKGRFTISRDNAKSTVYLQMNSLKPEDTAVYYCAARYQPRYYDSGDMDGYEYDNWGQGTQVTVSSSSGASASAAGGSDIQMTQSPILLSASVGDRVTITCRASQSIRSYLNWYQQRTNGSPRLLIYAASSLQSGVPSRFSGSGSGTDFTLTINSLQPDDEADYYCQQTYSNPPITFGAGTRLEIKRTVAAPSVFIFPPSDEQLKSGTASVVCLLNNFYPREAKVQWKVDNALQSGNSQESVTEQDSKDSTYSLSSTLTLSKADYEKHKVYACEVTHQGLSSPVTKSFNRGEC
notes: Single chain with non-cleavable linker L2; also called CD3HC-L1-CD38nanobody (5F1O)-L2-CD3LC
For B2, the “CD3 (% of PBMC in the CD3-V450 positive, CD38-PE negative quadrant)” value in test [2] is 11%. Further, the kon in test [3] came to 590000 M⁻¹ s⁻¹. In addition, in test [4], the koff is under 1e-05 s⁻¹.

B3: 3-38BN001 (5F1K) (bispecific antibody)
chain: EVQLVESGGGLVQPGRSLRLSCAASGFTFDDYTMHWVRQAPGKGLEWVSDISWNSGSIGYADSVKGRFTVSRDNAKNSLYLQMNSLRGEDTAIYYCAKDMSGYGHYGKYGMDVWGQGTTVTVSSASTKGPSVFPLAPSSKSTSGGTAALGCLVKDYFPEPVTVSWNSGALTSGVHTFPAVLQSSGLYSLSSVVTVPSSSLGTQTYICNVNHKPSNTKVDKKVEPKSCAASGGAGSDVQLQESGGGLVQAGGSLRLSCTGSGRTFRNYPMAWFRQAPGKEREFVAGITWVGASTLYADFAKGRFTISRDNAKNTVYLQMNSLKPEDTAVYSCAAGRGIVAGRIPAEYADWGQGTQVTVSSGAVPLSLYGAGGDIQMTQSPILLSASVGDRVTITCRASQSIRSYLNWYQQRTNGSPRLLIYAASSLQSGVPSRFSGSGSGTDFTLTINSLQPDDEADYYCQQTYSNPPITFGAGTRLEIKRTVAAPSVFIFPPSDEQLKSGTASVVCLLNNFYPREAKVQWKVDNALQSGNSQESVTEQDSKDSTYSLSSTLTLSKADYEKHKVYACEVTHQGLSSPVTKSFNRGEC
notes: Single-chain anti-CD3 Fab heavy chain - linker L1 - anti-CD38 nanobody 5F1K - cleavable linker L2 (MMP-9 site) - anti-CD3 light chain; also called 3-38N001; CD3HC-L1-CD38nanobody (5F1K)-L2-CD3LC
Take B3: the “CD38+ (% of PBMC in the CD38-PE positive, CD3-V450 negative quadrant)” value in test [5] is 1%. The “CD3 (% of PBMC in the CD3-V450 positive, CD38-PE negative quadrant)” value in test [2] came out at 13%. Besides, in test [3], the affinity, expressed as Kd, was 0.946 nM; the koff came out at 0.000696 s⁻¹; the kon is 735000 M⁻¹ s⁻¹.

B4: 3-38BN004 (5F1K) (bispecific antibody)
chain: EVQLVESGGGLVQPGRSLRLSCAASGFTFDDYTMHWVRQAPGKGLEWVSDISWNSGSIGYADSVKGRFTVSRDNAKNSLYLQMNSLRGEDTAIYYCAKDMSGYGHYGKYGMDVWGQGTTVTVSSASTKGPSVFPLAPSSKSTSGGTAALGCLVKDYFPEPVTVSWNSGALTSGVHTFPAVLQSSGLYSLSSVVTVPSSSLGTQTYICNVNHKPSNTKVDKKVEPKSCAASGGAGSDVQLQESGGGLVQAGGSLRLSCTGSGRTFRNYPMAWFRQAPGKEREFVAGITWVGASTLYADFAKGRFTISRDNAKNTVYLQMNSLKPEDTAVYSCAAGRGIVAGRIPAEYADWGQGTQVTVSSSSGASASAAGGSDIQMTQSPILLSASVGDRVTITCRASQSIRSYLNWYQQRTNGSPRLLIYAASSLQSGVPSRFSGSGSGTDFTLTINSLQPDDEADYYCQQTYSNPPITFGAGTRLEIKRTVAAPSVFIFPPSDEQLKSGTASVVCLLNNFYPREAKVQWKVDNALQSGNSQESVTEQDSKDSTYSLSSTLTLSKADYEKHKVYACEVTHQGLSSPVTKSFNRGEC
notes: also called 3-38N004; CD38-CD3 BIONIC
Take B4: the “CD38+ (% of PBMC in the CD38-PE positive, CD3-V450 negative quadrant)” value in test [5] came to 1%. Further, the “CD3 (% of PBMC in the CD3-V450 positive, CD38-PE negative quadrant)” value in test [2] amounted to 11%. In test [3], this molecule had a Kd of 0.962 nM, a koff of 0.000711 s⁻¹ and a kon of 740000 M⁻¹ s⁻¹.

B5: 3-38BN003 (5F21) (bispecific antibody)
chain: EVQLVESGGGLVQPGRSLRLSCAASGFTFDDYTMHWVRQAPGKGLEWVSDISWNSGSIGYADSVKGRFTVSRDNAKNSLYLQMNSLRGEDTAIYYCAKDMSGYGHYGKYGMDVWGQGTTVTVSSASTKGPSVFPLAPSSKSTSGGTAALGCLVKDYFPEPVTVSWNSGALTSGVHTFPAVLQSSGLYSLSSVVTVPSSSLGTQTYICNVNHKPSNTKVDKKVEPKSCAASGGAGSDVQLQESGGGSVQAGGSLTLSCTASGLLFRLASMGWYRQAPGKERELIATITVGGKTNYKDSVQGRFIITRDNTGDNTKSTVTLQMNRLKPEDTAVYYCNTASPAVGADTWGQGTRVTVSSGAVPLSLYGAGGDIQMTQSPILLSASVGDRVTITCRASQSIRSYLNWYQQRTNGSPRLLIYAASSLQSGVPSRFSGSGSGTDFTLTINSLQPDDEADYYCQQTYSNPPITFGAGTRLEIKRTVAAPSVFIFPPSDEQLKSGTASVVCLLNNFYPREAKVQWKVDNALQSGNSQESVTEQDSKDSTYSLSSTLTLSKADYEKHKVYACEVTHQGLSSPVTKSFNRGEC
notes: Single chain with cleavable linker L2 (MMP-9 site); also called 38N003; CD3HC-L1-CD38nanobody (5F21)-L2-CD3LC
Regarding B5, in test [1], the Kd worked out at 522 nM, the koff came out at 0.0525 s⁻¹ and the kon stood at 101000 M⁻¹ s⁻¹. In addition, in test [5], the “CD38+ (% of PBMC in the CD38-PE positive, CD3-V450 negative quadrant)” value worked out at 15%. Also, the “CD3 (% of PBMC in the CD3-V450 positive, CD38-PE negative quadrant)” value in test [2] turned out to be 12%. In test [3], this molecule returned a Kd of 0.478 nM, an off-rate (koff) of 6.84e-05 s⁻¹ and a kon of 143000 M⁻¹ s⁻¹.

B6: 3-38BN006 (5F21) (bispecific antibody)
chain: EVQLVESGGGLVQPGRSLRLSCAASGFTFDDYTMHWVRQAPGKGLEWVSDISWNSGSIGYADSVKGRFTVSRDNAKNSLYLQMNSLRGEDTAIYYCAKDMSGYGHYGKYGMDVWGQGTTVTVSSASTKGPSVFPLAPSSKSTSGGTAALGCLVKDYFPEPVTVSWNSGALTSGVHTFPAVLQSSGLYSLSSVVTVPSSSLGTQTYICNVNHKPSNTKVDKKVEPKSCAASGGAGSDVQLQESGGGSVQAGGSLTLSCTASGLLFRLASMGWYRQAPGKERELIATITVGGKTNYKDSVQGRFIITRDNTGDNTKSTVTLQMNRLKPEDTAVYYCNTASPAVGADTWGQGTRVTVSSSSGASASAAGGSDIQMTQSPILLSASVGDRVTITCRASQSIRSYLNWYQQRTNGSPRLLIYAASSLQSGVPSRFSGSGSGTDFTLTINSLQPDDEADYYCQQTYSNPPITFGAGTRLEIKRTVAAPSVFIFPPSDEQLKSGTASVVCLLNNFYPREAKVQWKVDNALQSGNSQESVTEQDSKDSTYSLSSTLTLSKADYEKHKVYACEVTHQGLSSPVTKSFNRGEC
notes: Single chain with non-cleavable linker L2; also called 38N006; CD3HC-L1-CD38nanobody (5F21)-L2-CD3LC
Take B6: the “CD38+ (% of PBMC in the CD38-PE positive, CD3-V450 negative quadrant)” value in test [5] is 11%. Further, in test [2], the “CD3 (% of PBMC in the CD3-V450 positive, CD38-PE negative quadrant)” value was found to be 12%. In test [3], this molecule had a Kd of 0.473 nM, a koff of 7.33e-05 s⁻¹ and a kon of 155000 M⁻¹ s⁻¹.
